In patent US20240376174A1:

Assays:
[1] = target: allophycocyanin (AP) core cylinders of the Synechocystis phycobilisome
[2] = target: allophycocyanin (AP) core cylinders of the Synechocystis phycobilisome; remark: listed apart in the source
[3] = target: allophycocyanin (AP) core cylinders of the Synechocystis phycobilisome; remark: listed apart in the source
[4] = target: CpcA, α-subunit of phycocyanin (Synechocystis sp. PCC 6803); assay: densitometry of Zn-chromophore fluorescence bands of affinity-eluted proteins

Substance	Chl a fluorescence yield normalized to Chl, relative to Δcpc (relative to Δcpc (=1.0)) [1]	kII of PSII photochemistry minus the kII of Δcpc, 620 nm actinic light, 12 µM DCMU [1]	Chl a fluorescence yield at 700 nm, normalized to [Chl], relative to Δcpc (relative to Δcpc (=1.00)) [2]	rate constant kII of PSII photochemistry, 620 nm actinic light, DCMU-treated intact cells [3]	CpcB/CpcA Zn-chromophore fluorescence ratio in the eluted fraction [4]
(α,β)3CpcG1*IFN complex	1.55	22.4 % of WT			
(α,β*)3CpcG heterohexameric complex			1.74	1.57 fold of Δcpc	
(α,β*IFN)3CpcG heterohexameric complex			1.84	1.46 fold of Δcpc	
(α,β*TTFC)3CpcG1*IFN heterohexameric complex	1.45	13.4 % of WT			
(α,β*TTFC)3CpcG heterohexameric complex			1.66	1.39 fold of Δcpc	
CpcB*S7*6xHis*tev*TTFC fusion protein					1.4
